± gives the uncertainty stated by the source.
Experiment: protein stability index of a GFP-peptide fusion (yeast GPS) (PSI 1-4); higher = more stable; sorted into four equal gates, so the index is relative within each strain
In short: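 Each library plasmid carries Cherry plus GFP with a tiled 17-residue yeast protein peptide fused downstream, and the pooled library was carried in yeast. Mid-log cultures in leucine-free medium were sorted into four equal gates by GFP/Cherry ratio. Reads from Illumina sequencing of PCR-amplified plasmids from each gate were assigned to strains by barcodes. Per peptide, the protein stability index was computed as the summed products of gate read frequency and gate number.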

Row | Sequence | protein stability index (doa10∆) | protein stability index (pdr5∆) | protein stability index (san1∆) | protein stability index (ubr1∆)
1 | TCVTCHWNLPGERIFNK [SIR2] | 2.87 ± 0.14 | 2.88 ± 0.11 | 2.82 ± 0.091 | 3.19 ± 0.083
2 | TDANGKTIVTGGNGPED [RPO26] | 3.62 ± 0.21 | 3.28 ± 0.099 | 3.48 ± 0.12 | 3.37 ± 0.057
3 | TDDSFEDKVFASKGRTK [BRN1] | – | 2.74 ± 0.099 | 2.93 ± 0.13 | 2.29 ± 0.18
4 | TDTSTTATAATNGNNAG [MED6] | 3.2 ± 0.29 | 3.06 ± 0.13 | 3.39 ± 0.091 | 3.29 ± 0.096
5 | TEDILKEISTRVFNAKD [YCS4] | 3.11 ± 0.13 | 3.17 ± 0.095 | 3.25 ± 0.095 | 3.29 ± 0.092
6 | TEDVRLAPELNQAIWKR [RPL31B] | 2.67 ± 0.069 | 2.99 ± 0.083 | 3.03 ± 0.062 | 3.08 ± 0.05
7 | TEELSITGEKLDTQLND [SMC1] | 1.86 ± 0.068 | 2.41 ± 0.083 | 2.29 ± 0.12 | 1.36 ± 0.034
8 | TEKEEDAELMADEEEEI [ISW2] | 3.5 ± 0.18 | 3.38 ± 0.13 | 3.41 ± 0.083 | 3.34 ± 0.17
9 | TELKKKLDDLENTKDNL [SMC1] | 3.01 ± 0.11 | 2.94 ± 0.12 | 3.09 ± 0.12 | 2.72 ± 0.14
10 | TELVDKANIFQVIKNEV [SSN2] | – | 2.54 ± 0.18 | 2.97 ± 0.2 | 3.16 ± 0.17
11 | TENATENDQQDNEEWMN [LIN1] | 3.23 ± 0.072 | 3.03 ± 0.067 | 3.06 ± 0.062 | 2.77 ± 0.05
12 | TENVAQARIILNHILEK [YGR119C/NUP57] | 2.58 ± 0.081 | 2.87 ± 0.08 | 3.14 ± 0.067 | 2.86 ± 0.061
13 | TEPDKPAFSFNSSVGNK [YJL041W/NSP1] | 3.14 ± 0.053 | 3.3 ± 0.04 | 3.09 ± 0.033 | 3.242 ± 0.029
14 | TEQQIEIPEGVTVSIKS [RPL9B] | 2.24 ± 0.062 | 2.73 ± 0.071 | 2.39 ± 0.067 | 2.47 ± 0.059
15 | TESITHDSSNGLFQVLH [NUT1] | 3.12 ± 0.073 | 3.22 ± 0.061 | 2.99 ± 0.058 | 3.17 ± 0.041
16 | TETLTSKKIVPSPKKVA [SIR4] | 2.77 ± 0.089 | 2.87 ± 0.083 | 2.63 ± 0.066 | 2.55 ± 0.12
17 | TFDGKPTATPSPFRPLE [YMR153W/NUP53] | 3.02 ± 0.086 | 2.15 ± 0.087 | 2.38 ± 0.12 | 2.58 ± 0.071
18 | TFGKPEEEDSILSLEQS [YCS4] | 3.19 ± 0.091 | 3.19 ± 0.074 | 3.14 ± 0.057 | 3.13 ± 0.095
19 | TFLESINGINWRFHTPQ [SIN4] | 2.4 ± 0.054 | 1.86 ± 0.048 | 1.93 ± 0.12 | 2.02 ± 0.043
20 | TFRLPKTLKLARAPKYA [RPL25] | 1.69 ± 0.076 | 1.61 ± 0.072 | 1.23 ± 0.19 | 1.19 ± 0.047
21 | TFSYVDSSLQPEYFESP [YMR129W/POM152] | 3.22 ± 0.2 | 3.07 ± 0.13 | – | 3.08 ± 0.22
22 | TGAASNQSSFNFGNNGA [YOR098C/NUP1] | 2.65 ± 0.11 | 2.79 ± 0.099 | 2.5 ± 0.096 | 2.93 ± 0.074
23 | TGAGKGSIGAEVLQGLL [FAS2] | 3.48 ± 0.088 | 3.56 ± 0.063 | 3.47 ± 0.066 | 2.96 ± 0.067
24 | TGALINNLEPRQTTSNT [RPN11] | 3.12 ± 0.1 | 3.25 ± 0.15 | 2.62 ± 0.15 | 3.02 ± 0.076
25 | TGANFDDVERGVSRQIA [REC8] | 3.49 ± 0.11 | 3.63 ± 0.17 | 3.32 ± 0.24 | 3.58 ± 0.12

Row | Sequence | protein stability index (doa10∆) | protein stability index (pdr5∆) | protein stability index (san1∆) | protein stability index (ubr1∆)
26 | TGATSLFGSSNNNNNNN [YGL172W/NUP49] | 2.39 ± 0.046 | 2.07 ± 0.038 | 2.34 ± 0.056 | 2.42 ± 0.043
27 | TGEAQVDNSPTTESNSR [YLR335W/NUP2] | 2.98 ± 0.086 | 2.83 ± 0.09 | 2.59 ± 0.13 | 3.06 ± 0.092
28 | TGGLFGAKPAGSTGGLG [YGL172W/NUP49] | 3.39 ± 0.13 | 3.42 ± 0.24 | 3.23 ± 0.1 | 3.54 ± 0.07
29 | TGHSQGLVTAVAIAETD [FAS1] | 3.25 ± 0.14 | 3.44 ± 0.078 | 3.29 ± 0.098 | 3.25 ± 0.095
30 | TGIFMAMHYSSNIELAF [COB] | 1.3 ± 0.065 | 1.51 ± 0.063 | 1.24 ± 0.12 | 1.5 ± 0.078
31 | TGKFVLQGQMEKIMILL [CSN12] | 1.61 ± 0.1 | 2.2 ± 0.12 | 1.31 ± 0.2 | 1.51 ± 0.12
32 | TGKITKMFQDIRLSKIL [CDC53] | 2.73 ± 0.07 | 3.03 ± 0.093 | 2.66 ± 0.071 | 2.86 ± 0.069
33 | TGLLIARRTLQKLGLDE [RPL5] | 3.2 ± 0.13 | 3.05 ± 0.17 | 3.39 ± 0.094 | 3.18 ± 0.16
34 | TGPFKVNGVPLRRVNAR [RPL6B] | 2.26 ± 0.13 | 2.49 ± 0.099 | 2.56 ± 0.095 | 2.72 ± 0.061
35 | TGWNAKTYGISDDIISQ [FAS2] | 1.99 ± 0.14 | 1.12 ± 0.12 | 1.72 ± 0.24 | 1.2 ± 0.091
36 | TGYPDEPPAGVALPPGS [CYT1] | 2.84 ± 0.13 | 2.92 ± 0.11 | 2.65 ± 0.11 | 2.95 ± 0.067
37 | THEQWSNIQRNVLFLRL [SRP72] | 2.67 ± 0.062 | 2.38 ± 0.062 | 1.96 ± 0.077 | 2.45 ± 0.041
38 | THHTDIIPIVDYAQLDH [ARP9] | 2.58 ± 0.051 | 2.39 ± 0.041 | 2.66 ± 0.039 | 2.61 ± 0.031
39 | THVANFMNDAAADVSAV [YML103C/NUP188] | 2.79 ± 0.097 | 2.77 ± 0.073 | 2.44 ± 0.081 | 2.84 ± 0.049
40 | TIEDIAVAITRASKLKI [RPO31] | 1.63 ± 0.081 | 1.76 ± 0.063 | 2.1 ± 0.12 | 1.97 ± 0.06
41 | TINKAVQVKVLGKYEFS [ESC2] | 1.48 ± 0.077 | 1.37 ± 0.092 | 1.89 ± 0.18 | 2 ± 0.076
42 | TIPILESDSKATLQSNE [DSN1] | 2.8 ± 0.12 | 2.16 ± 0.11 | 2.36 ± 0.16 | 2.67 ± 0.081
43 | TIRQIILPDSLNLDSLL [SMD1] | 3.03 ± 0.076 | 2.67 ± 0.065 | 3.11 ± 0.055 | 2.7 ± 0.046
44 | TIRTRKVISNPLLARKQ [RPS24A] | 1.74 ± 0.1 | 1.88 ± 0.066 | 2.35 ± 0.13 | 1.87 ± 0.089
45 | TIVTGGGSGNGDDVVND [RPP1] | 3.14 ± 0.26 | 3.6 ± 0.17 | 3.22 ± 0.12 | 3.54 ± 0.21
46 | TIYNNIREGQNQKIPDN [SIR3] | 2.96 ± 0.05 | 3.18 ± 0.064 | 2.98 ± 0.056 | 3.02 ± 0.045
47 | TKANDKNESATINEMMK [FAS2] | 3.1 ± 0.084 | 3.17 ± 0.094 | 3.03 ± 0.062 | 3.11 ± 0.057
48 | TKEELESDGRMFIEEPT [SRP54] | 2.58 ± 0.091 | 3.11 ± 0.14 | 2.96 ± 0.099 | 2.71 ± 0.055
49 | TKFFDDAKSTPLRLRLY [RPN9] | 3.26 ± 0.24 | 3.02 ± 0.15 | – | 2.89 ± 0.17
50 | TKGDSTPVQPDLSVTPQ [YAR002W/NUP60] | 3.22 ± 0.036 | 3.16 ± 0.036 | 2.984 ± 0.028 | 3.098 ± 0.024

Reference: the supplement of paper PMC9732359
